# From patent US7087717B2, “Sp110, a polypeptide component of the nuclear body” (The General Hospital Corporation, priority 2000, dated 2006)
# Legend:
# [1] = system: HL60 cells; experiment: Sp110 mRNA level by RNA blot after IFN-γ treatment; assay type: cell-based, human; settings: 200 units/ml, 48 hours
# Experimental: To investigate the expression of Sp110 in cells of the monocyte/granulocyte lineage, RNA was prepared from the myeloid precursor cell lines HL60 and NB4 (HL60 cells are available from the American Type Culture Collection, Manassas, Va.). RNA was extracted from these cell lines using the guanidinium isothiocyanate-cesium chloride method (Sambrook et al., Cold Spring Harbor Laboratory, Cold Spring Harbor, N.Y., 1989). The HL60 cells were maintained in RPMI supplemented with 10% fetal calf serum, L-glutamine (2 mM), penicillin (200 units/ml), and streptomycin (200 mg/ml). RNA was fractionated in formaldehyde-agarose gels (5 μg/lane) and equal loading of RNA was confirmed by staining 28S and 18S ribosomal RNA with ethidium bromide. RNA was transferred to nylon membranes and the membranes were hybridized with the radiolabeled XbaI restriction fragment of the Sp110 cDNA or the EcoRI/BamHI restriction fragment of the cDNA encoding human Sp100 (Bloch et al., J. Biol. Chem. 46:29198–29204, 1996). Membranes were washed and analyzed by autoradiography. Low levels of Sp110 mRNA were detected in both NB4 cells and HL60 cells.
# To examine the effect of cellular differentiation on Sp110 mRNA, NB4 cells were treated for 48 hours with all trans retinoic acid (ATRA) (1 μM). […] To examine the effect of IFN-γ treatment on Sp110 mRNA levels, HL60 cells were treated with IFN-γ (200 units/ml) for 48 hours.
# [2] = system: RARα response element; experiment: RAR transcriptional co-activation reporter assay; assay type: cell-based; settings: for signal transduction through RARα / expression of the reporter gene: expressed with RARα
# Experimental: Experiments were also performed to determine whether Sp110 could function as a retinoic acid receptor (RAR) transcriptional co-activator. […] The extent of reporter gene activation by Sp110 was similar to that induced by the nuclear body component PML.
# [3] = system: PPARα; experiment: PPARα co-activation reporter assay (PPRE) in COS cells; assay type: cell-based; settings: COS cells co-transfected with PPARα; compared with PPARα expressed alone
# Text: Sp110 also acted as a co-activator of PPARα. […] Sp110 may interact with nuclear hormone receptors via an LXXLL domain. To determine whether Sp110 interacts with PPARα via the LULL domain, oligonucleotides and PCR were used to prepare a mutant Sp110 protein (Sp110m) in which two of the three leucine residues were changed, one to valine and one to alanine (LXXVA).
# [4] = system: PPARγ receptor; experiment: PPARγ signal transduction reporter assay; assay type: cell-based
# [5] = system: CAT reporter plasmid containing five GAL4 binding sites and an SV40 enhancer region (pG5SV-BCAT); experiment: GAL4 fusion / CAT reporter gene transcription assay in COS cells; assay type: cell-based
# Text: To examine the potential effect of Sp110 on gene transcription, a eukaryotic expression plasmid encoding Sp110 fused to the DNA-binding domain of GAL4 (pBXG-Sp1110) was co-transfected with a CAT reporter plasmid containing five GAL4 binding sites and an SV40 enhancer region (pG5SV-BCAT) into COS cells.
# To identify the portion of Sp110 that enhances reporter gene expression, DNA segments encoding fragments of Sp110 fused to GAL4 were expressed with a reporter gene in COS cells. […] The mechanism by which Sp110 enhances PPARα-mediated gene transcription can be investigated, as described below, by identifying proteins that interact with the activation domain and SAND domain.
# [6] = system: CBP; experiment: Mammalian two-hybrid assay with GAL4-CBP in COS cells; assay type: cell-based; settings: VP16 fusions, compared with VP16 alone
# Text: PPARα interacted with the N-terminal portion of CBP/p300 between amino acid residues 39 and 221. To determine whether Sp110 also interacts with CBP, the mammalian two-hybrid system was used as an assay. In this assay, the GAL4 DNA-binding domain (GAL4) fused to CBP (GAL4-CBP) and a luciferase reporter gene containing GAL4 response elements were expressed in COS cells with either Sp110 fused to the herpes simplex virus VP16 activation domain (VP16-Sp110) or VP16 alone. […] Thus, Sp110 interacts, either directly or indirectly, with CBP. The site of functional interaction between Sp110 and CBP was mapped more specifically to amino acid residues 271–720 of CBP. The Sp110-CBP functional interaction domain is therefore distinct from the PPARα-CBP interaction domain.
# To identify the portion of Sp110 that functionally interacts with CBP, the N-terminal or C-terminal portions of Sp110 were fused to VP16 and expressed in COS cells together with GAL4CBP and a reporter gene. […] As described below, studies can be carried out to further delineate the domains that mediate functional interaction between Sp110 and CBP and to test whether Sp110 interacts with CBP directly.
Molecule,signal transduction through RARα / expression of the reporter gene [2],agonist-induced expression of the PPRE reporter gene / activation of the PPARα receptor [3],signal transduction through the PPARγ receptor [4],reporter gene expression by fragments of Sp110 fused to GAL4 [5],GAL4-CBP-induced luciferase reporter gene activity [6],further results
"IFN-γ: interferon (protein, UniProt P01579 24-161, looked up) Interferon gamma: QDPYVKEAENLKKYFNAGHSDVADNGTLFLGILKNWKEESDRKIMQSQIVSFYFKLFKNFKDDQSIQKSVETIKEDMNVKFFNSNKKKRDDFEKLTNYSVTDLNVQRKAIHELIQVMAELSPAAKTGKRKRSQMLFRG",,,,,,Sp110 mRNA level [1]: marked increase
"Sp110: novel 110 kDa polypeptide component of the nuclear body, 689 amino acids, SEQ ID NO:2 (protein, listed as Homo sapiens) MFTMTRAMEEALFQHFMHQKLGIAYAIHKPFPFFEGLLDNSIITKRMYMESLEACRNLIPVSRVVHNILTQLERTFNLSLLVTLFSQINLREYPNLVTIYRSFKRVGASYERQSRDTPILLEAPTGLAEGSSLHTPLALPHHKPPQPSCSPCAPRVSEPGTSSQQSTEILSESPSPSDPVLPLPALIQEGRSTSVTNDKLTSKMNAEEDSEEMPSLLTSTVQVASDNLIPQIRDKEDPQEMPHSPLGSMPEIRDNSPEPNDPEEPQEVSSTPSDKKGKKRKRCIWSTPKRRHKKKSLPRGTASSRHGIQKKLKRVDQVPQKKDDSTCNSTVETRAQKARTECARKSRSEEIIDGTSEMNEGKRSQKTPSTPRRVTQGAASPGHGIQEKLQVVDKVTQRKDDSTWNSEVMMRVQKARTKCARKSRSKEKKKEKDICSSSKRRFQKNIHRRGKPKSDTVDFHCSKLPVTCGEAKGILYKKKMKHGSSVKCIRNEDGTWLTPNEFEVEGKGRNAKNWKRNIRCEGTTLGELLKRKNSDECEVCCQGGQLLCCGTCPRVFHEDCHIPPVEAKRMLWSCTFCRMKRSSGSQQCHHVSKTLERQMQPQDQLIRDYGEPFQEAMWLDLVKERLITEMYTVAWFVRDMRLMFRNHKTFYKASDFGQVGLDLEAEFEKDLKDVLGFHEANDGGFWTLP",enhanced signal transduction,markedly enhanced,enhanced signal transduction,,,"ATRA-induced expression of the reporter gene ([2]; COS cells, reporter with three copies of the RARα response element): significantly enhanced"
"Sp110m: mutant Sp110 protein in which two of the three LXXLL leucine residues were changed, one to valine and one to alanine (LXXVA) (protein) MFTMTRAMEEALFQHFMHQKLGIAYAIHKPFPFFEGLLDNSIITKRMYMESLEACRNLIPVSRVVHNILTQLERTFNLSLLVTLFSQINLREYPNLVTIYRSFKRVGASYERQSRDTPILLEAPTGLAEGSSLHTPLALPHHKPPQPSCSPCAPRVSEPGTSSQQSTEILSESPSPSDPVLPLPALIQEGRSTSVTNDKLTSKMNAEEDSEEMPSLLTSTVQVASDNLIPQIRDKEDPQEMPHSPLGSMPEIRDNSPEPNDPEEPQEVSSTPSDKKGKKRKRCIWSTPKRRHKKKSLPRGTASSRHGIQKKLKRVDQVPQKKDDSTCNSTVETRAQKARTECARKSRSEEIIDGTSEMNEGKRSQKTPSTPRRVTQGAASPGHGIQEKLQVVDKVTQRKDDSTWNSEVMMRVQKARTKCARKSRSKEKKKEKDICSSSKRRFQKNIHRRGKPKSDTVDFHCSKLPVTCGEAKGILYKKKMKHGSSVKCIRNEDGTWLTPNEFEVEGKGRNAKNWKRNIRCEGTTLGELLKRKNSDECEVCCQGGQLLCCGTCPRVFHEDCHIPPVEAKRMLWSCTFCRMKRSSGSQQCHHVSKTLERQMQPQDQLIRDYGEPFQEAMWLDLVKERLITEMYTVAWFVRDMRLMFRNHKTFYKASDFGQVGLDLEAEFEKDLKDVLGFHEANDGGFWTLP",also enhanced expression of the reporter gene,less than wild-type Sp110,enhanced signal transduction,,,
"N-terminal portion: N-terminal portion of Sp110, containing the Sp100-like region, fused to VP16 or GAL4 (protein, left off: large carriers, N-terminal portion of Sp110, containing the Sp100-like region, fused to VP16 or GAL4) MFTMTRAMEEALFQHFMHQKLGIAYAIHKPFPFFEGLLDNSIITKRMYMESLEACRNLIPVSRVVHNILTQLERTFNLSLLVTLFSQINLREYPNLVTIYRSFKRVGASYERQSRDTPILLEAPTGLAEGSSLHTPLALPHHKPPQPSCSPCAPRVSEPGTSSQQSTEILSESPSPSDPVLPLPALIQEGRSTSVTNDKLTSKMNAEEDSEEMPSLLTSTVQVASDNLIP",,,,"Neither the N-terminal (Sp100-like domain), nor the C-terminal (PHD/bromodomain) portions of Sp110 increased expression of the reporter gene",did not,
"C-terminal portion: C-terminal portion of Sp110, containing the PHD and the bromodomain, fused to VP16 or GAL4 (protein, left off: large carriers, C-terminal portion of Sp110, containing the PHD and the bromodomain, fused to VP16 or GAL4) KRKNSDECEVCCQGGQLLCCGTCPRVFHEDCHIPPVEAKRMLWSCTFCRMKRSSGSQQCHHVSKTLERQMQPQDQLIRDYGEPFQEAMWLDLVKERLITEMYTVAWFVRDMRLMFRNHKTFYKASDFGQVGLDLEAEFEKDLKDVLGFHEANDGGFWTLP",,,,"Neither the N-terminal (Sp100-like domain), nor the C-terminal (PHD/bromodomain) portions of Sp110 increased expression of the reporter gene",enhanced,
